Measurements taken from patent publication US20250171534A1 (D2M BIOTHERAPEUTICS, published 2025).
One block for each binder: values may come before it.

What was measured:
[1] = target: T1, LILRB1-ECD-HIS (SinoBiological Cat #: 16014-H02H) (human, UniProt Q8NHL6 24-461); assay: BLI epitope binning (Gator), monomeric antigen
T1 construct: Bought protein; also called monomeric antigen LILRB1-ECD-HIS; not shown: His tag

[2] = target: T2, human LILRB1 expressed on cells (human, UniProt Q8NHL6 24-650); assay: flow cytometry, CHO-LILRB1 cells
T2 construct: In 293T cells it was expressed from pCMV3-LILRB1-GFP; also called CHO-LILRB1; Jurkat-LILRB1
T2 sequence (Q8NHL6 other isoform, or with tags, fused parts or gaps limits assumed): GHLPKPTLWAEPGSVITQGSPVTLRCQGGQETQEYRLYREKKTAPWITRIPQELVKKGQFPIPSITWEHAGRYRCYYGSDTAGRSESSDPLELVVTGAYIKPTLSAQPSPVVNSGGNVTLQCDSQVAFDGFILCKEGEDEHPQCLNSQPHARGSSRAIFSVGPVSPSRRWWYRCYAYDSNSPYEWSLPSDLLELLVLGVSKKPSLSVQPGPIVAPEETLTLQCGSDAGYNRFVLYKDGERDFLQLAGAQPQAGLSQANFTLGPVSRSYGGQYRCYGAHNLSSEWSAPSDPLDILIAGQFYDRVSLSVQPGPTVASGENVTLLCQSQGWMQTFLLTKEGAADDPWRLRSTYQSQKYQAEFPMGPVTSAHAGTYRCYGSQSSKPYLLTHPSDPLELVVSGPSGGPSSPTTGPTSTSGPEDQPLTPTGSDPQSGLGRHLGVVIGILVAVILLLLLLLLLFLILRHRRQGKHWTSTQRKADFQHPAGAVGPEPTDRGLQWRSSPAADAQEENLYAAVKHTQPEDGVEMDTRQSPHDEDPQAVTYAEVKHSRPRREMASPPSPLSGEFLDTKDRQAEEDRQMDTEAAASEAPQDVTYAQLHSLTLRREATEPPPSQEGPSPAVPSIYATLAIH

[3] = target: T3, human LILRB2 expressed on cells (human, UniProt Q8N423 22-597); assay: flow cytometry, CHO-LILRB2 cells
T3 construct: In 293T cells it was expressed from pCMV3-LILRB2-GFP; also called CHO-LILRB2; Jurkat-LILRB2
T3 sequence (Q8N423 other isoform, or with tags, fused parts or gaps limits assumed): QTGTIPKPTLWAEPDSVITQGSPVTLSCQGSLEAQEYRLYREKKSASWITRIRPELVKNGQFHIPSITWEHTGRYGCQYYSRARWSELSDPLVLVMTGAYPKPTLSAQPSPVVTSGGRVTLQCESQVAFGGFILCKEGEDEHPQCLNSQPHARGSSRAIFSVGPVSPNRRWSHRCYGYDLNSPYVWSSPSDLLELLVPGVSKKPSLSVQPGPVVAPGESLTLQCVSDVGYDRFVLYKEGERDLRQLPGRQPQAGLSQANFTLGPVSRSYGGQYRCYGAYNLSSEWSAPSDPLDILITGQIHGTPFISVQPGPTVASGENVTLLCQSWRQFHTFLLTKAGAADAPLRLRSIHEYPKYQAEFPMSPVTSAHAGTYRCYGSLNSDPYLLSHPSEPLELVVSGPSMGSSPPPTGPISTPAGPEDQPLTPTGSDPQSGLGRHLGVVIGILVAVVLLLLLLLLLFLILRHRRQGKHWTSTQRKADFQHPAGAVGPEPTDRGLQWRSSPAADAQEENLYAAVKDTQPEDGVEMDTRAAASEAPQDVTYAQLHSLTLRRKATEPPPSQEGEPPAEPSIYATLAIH

[4] = target: T2, human LILRB1 expressed on cells; assay: flow cytometry, CHO-LILRB1 cells; remark: listed apart in the source
[5] = target: T1, LILRB1-ECD-HIS (SinoBiological Cat #: …); assay: SPR (Carterra LSA), antibody captured, antigen injected;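 further: kd obtained from kinetic analysis of antibody binding to the antigen, with association and dissociation phases fitted in the instrument software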
[6] = target: T4, LILRB2-ECD-HIS (SinoBiological Cat #: 14132-H02H) (human, UniProt Q8N423 22-460); assay: as above
T4 construct: Bought protein; also called monomeric antigen LILRB2-ECD-HIS; not shown: His tag
T4 sequence (Q8N423 other isoform, or with tags, fused parts or gaps H02H H02H): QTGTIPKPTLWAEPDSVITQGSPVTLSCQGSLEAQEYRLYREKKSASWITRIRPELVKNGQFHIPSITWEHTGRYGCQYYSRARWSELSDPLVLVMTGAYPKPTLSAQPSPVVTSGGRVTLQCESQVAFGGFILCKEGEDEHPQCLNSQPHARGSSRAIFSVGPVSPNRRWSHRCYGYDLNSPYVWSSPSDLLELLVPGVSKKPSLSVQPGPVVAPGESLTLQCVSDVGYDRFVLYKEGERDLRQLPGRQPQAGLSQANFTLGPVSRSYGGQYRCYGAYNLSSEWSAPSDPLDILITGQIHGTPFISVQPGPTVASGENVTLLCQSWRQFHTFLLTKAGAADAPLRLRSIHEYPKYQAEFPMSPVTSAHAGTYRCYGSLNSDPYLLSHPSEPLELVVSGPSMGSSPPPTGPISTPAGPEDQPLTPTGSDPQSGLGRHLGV

[7] = target: T4, LILRB2-ECD-HIS (SinoBiological Cat #: …); assay: BLI epitope binning (Gator), monomeric antigen
[8] = target: T4, LILRB2-ECD-HIS (SinoBiological Cat #: …); assay: SPR (Carterra), LILRB2-ECD-his
[9] = target: T1, LILRB1-ECD-HIS (SinoBiological Cat #: …); assay: SPR (Carterra), LILRB1-ECD-his
[10] = target: T5, LILRA5 expressed on 293T cells (UniProt A6NI73 42-299, limits assumed); assay: flow cytometry on 293T cells transiently expressing LILRA5, antibody 5 µg/mL, APC anti-human Fc; gMFI as fold to IgG staining
T5 construct: whole, on cells; GFP-tagged, transient
T5 sequence (A6NI73 42-299 limits assumed): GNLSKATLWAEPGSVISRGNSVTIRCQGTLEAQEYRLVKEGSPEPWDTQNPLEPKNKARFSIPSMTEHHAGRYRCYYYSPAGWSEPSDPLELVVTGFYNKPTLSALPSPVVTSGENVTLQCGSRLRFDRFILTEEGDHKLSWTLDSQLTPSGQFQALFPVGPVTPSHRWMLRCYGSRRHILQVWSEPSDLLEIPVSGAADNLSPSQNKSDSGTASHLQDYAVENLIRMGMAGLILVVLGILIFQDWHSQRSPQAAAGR

[11] = target: T2, human LILRB1 expressed on cells; assay: flow cytometry, CHO-LILRB1 cells; blocked ligand: APC HLA-G trimer tetramer
[12] = target: T1, LILRB1-ECD-HIS (SinoBiological Cat #: …); assay: BLI (Gator), RB1-ECD-his
[13] = target: T6, LILRA1 expressed on cells (human, UniProt O75019 17-489); assay: flow cytometry on CHO-LILRA1 cells (CHO-RA1), titrated antibody, labelled anti-human Fc, gMFI
T6 construct: whole, on cells; GFP-tagged; also called human LILRA1; CHO-LILRA1
T6 sequence (O75019 17-489): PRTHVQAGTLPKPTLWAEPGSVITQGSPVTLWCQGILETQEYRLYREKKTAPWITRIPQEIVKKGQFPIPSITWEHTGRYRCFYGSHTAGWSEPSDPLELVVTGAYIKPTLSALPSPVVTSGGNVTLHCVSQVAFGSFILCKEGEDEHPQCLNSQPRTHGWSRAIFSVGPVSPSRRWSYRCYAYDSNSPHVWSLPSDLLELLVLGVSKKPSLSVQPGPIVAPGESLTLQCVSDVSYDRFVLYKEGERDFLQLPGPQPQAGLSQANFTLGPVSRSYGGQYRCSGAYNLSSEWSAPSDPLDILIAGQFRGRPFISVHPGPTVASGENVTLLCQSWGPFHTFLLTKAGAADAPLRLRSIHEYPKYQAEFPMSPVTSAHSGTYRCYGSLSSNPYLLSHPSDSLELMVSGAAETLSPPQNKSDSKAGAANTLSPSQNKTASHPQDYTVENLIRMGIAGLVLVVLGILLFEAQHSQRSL

[14] = target: T7, LILRA2 expressed on 293T cells (UniProt Q8N149 24-483, limits assumed); assay: flow cytometry on 293T cells transiently expressing LILRA2, APC anti-human Fc; gMFI as fold to IgG staining
T7 construct: whole, on cells; GFP-tagged, transient

[15] = target: T8, LILRA3 expressed on 293T cells (UniProt Q8N6C8 24-439, limits assumed); assay: flow cytometry on 293T cells transiently expressing LILRA3, APC anti-human Fc; gMFI as fold to IgG staining
T8 construct: whole, on cells; GFP-tagged, transient
T8 sequence (Q8N6C8 24-439 limits assumed): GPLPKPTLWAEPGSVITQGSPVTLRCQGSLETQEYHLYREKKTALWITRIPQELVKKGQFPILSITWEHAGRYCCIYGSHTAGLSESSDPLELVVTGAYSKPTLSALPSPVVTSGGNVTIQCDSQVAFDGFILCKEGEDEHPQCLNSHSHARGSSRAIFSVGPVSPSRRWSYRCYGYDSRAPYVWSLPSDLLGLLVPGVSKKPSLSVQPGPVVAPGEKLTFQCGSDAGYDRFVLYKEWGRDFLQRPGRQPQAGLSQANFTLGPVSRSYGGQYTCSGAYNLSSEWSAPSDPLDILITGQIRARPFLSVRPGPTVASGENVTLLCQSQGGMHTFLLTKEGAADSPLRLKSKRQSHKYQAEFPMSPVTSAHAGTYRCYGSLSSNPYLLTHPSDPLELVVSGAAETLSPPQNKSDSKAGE

[16] = target: T2, human LILRB1 expressed on cells; assay: flow cytometry on CHO-LILRB1 cells (CHO-RB1), titrated antibody, labelled anti-human Fc, gMFI
[17] = target: T2, human LILRB1 expressed on cells; assay: flow cytometry on CHO-LILRB1 cells, non-linear fit of the curves of FIG. 26A
[18] = target: T2, human LILRB1 expressed on cells; assay: flow cytometry, CHO-LILRB1 cells; remark: listed apart in the source
[19] = target: T3, human LILRB2 expressed on cells; assay: flow cytometry on CHO-LILRB2 cells, non-linear fit of the curves of FIG. 26B
[20] = target: T9, LILRB4 expressed on 293T cells (UniProt Q8NHJ6 22-448, limits assumed); assay: flow cytometry on 293T cells transiently expressing LILRB4, APC anti-human Fc; gMFI as fold to IgG staining
T9 construct: whole, on cells; GFP-tagged, transient

[21] = target: T10, LILRA6 expressed on cells (human, UniProt Q6PI73 24-481); assay: flow cytometry on 293T cells transiently expressing LILRA6, APC anti-human Fc; gMFI as fold to IgG staining
T10 construct: whole, on cells; GFP-tagged; also called human LILRA6; CHO-LILRA6
T10 sequence (Q6PI73 24-481): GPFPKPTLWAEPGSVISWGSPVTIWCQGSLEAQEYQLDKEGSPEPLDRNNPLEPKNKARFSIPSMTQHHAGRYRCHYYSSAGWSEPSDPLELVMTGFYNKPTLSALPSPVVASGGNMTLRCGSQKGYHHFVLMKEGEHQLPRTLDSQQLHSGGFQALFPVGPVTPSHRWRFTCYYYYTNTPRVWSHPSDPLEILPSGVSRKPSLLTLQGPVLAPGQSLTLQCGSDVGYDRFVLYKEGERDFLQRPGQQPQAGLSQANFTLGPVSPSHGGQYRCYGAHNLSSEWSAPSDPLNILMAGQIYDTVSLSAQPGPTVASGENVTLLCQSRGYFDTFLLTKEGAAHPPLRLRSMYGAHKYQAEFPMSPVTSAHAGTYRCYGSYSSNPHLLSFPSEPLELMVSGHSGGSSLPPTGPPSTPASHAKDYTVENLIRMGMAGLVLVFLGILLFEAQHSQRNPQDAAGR

[22] = target: T3, human LILRB2 expressed on cells; assay: flow cytometry, Jurkat-LILRB2 cells; blocked ligand: APC HLA-G monomer tetramer
[23] = target: T11, LILRB5 expressed on 293T cells (UniProt O75023 24-590, limits assumed); assay: flow cytometry on 293T cells transiently expressing LILRB5, APC anti-human Fc; gMFI as fold to IgG staining
T11 construct: whole, on cells; GFP-tagged, transient
T11 sequence (O75023 24-590 limits assumed): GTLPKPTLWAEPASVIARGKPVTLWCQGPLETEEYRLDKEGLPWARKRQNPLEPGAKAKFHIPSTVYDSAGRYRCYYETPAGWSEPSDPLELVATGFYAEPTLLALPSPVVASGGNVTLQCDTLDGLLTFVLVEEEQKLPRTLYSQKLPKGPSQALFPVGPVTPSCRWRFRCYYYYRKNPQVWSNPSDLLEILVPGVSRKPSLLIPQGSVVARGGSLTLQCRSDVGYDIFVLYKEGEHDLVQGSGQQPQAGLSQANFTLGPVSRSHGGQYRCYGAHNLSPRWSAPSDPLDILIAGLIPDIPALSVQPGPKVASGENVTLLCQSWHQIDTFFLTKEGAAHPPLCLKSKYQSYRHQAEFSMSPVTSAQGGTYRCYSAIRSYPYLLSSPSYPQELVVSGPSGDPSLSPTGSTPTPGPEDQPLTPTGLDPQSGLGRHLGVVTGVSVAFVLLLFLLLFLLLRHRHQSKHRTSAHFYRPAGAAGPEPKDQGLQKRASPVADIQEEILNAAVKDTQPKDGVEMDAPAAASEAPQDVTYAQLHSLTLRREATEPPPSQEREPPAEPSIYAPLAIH

[24] = target: T12, LILRB3 expressed on cells (human, UniProt O75022 24-631); assay: flow cytometry on 293T cells transiently expressing LILRB3, APC anti-human Fc; gMFI as fold to IgG staining
T12 construct: whole, on cells; Expressed with a GFP tag from the bought plasmid; also called human LILRB3; CHO-LILRB3

[25] = target: T13, LILRA4 expressed on 293T cells (UniProt P59901 24-499, limits assumed); assay: flow cytometry on 293T cells transiently expressing LILRA4, APC anti-human Fc; gMFI as fold to IgG staining
T13 construct: whole, on cells; GFP-tagged, transient

[26] = target: T4, LILRB2-ECD-HIS (SinoBiological Cat #: …); assay: BLI (Gator), RB2-ECD-his
[27] = target: T3, human LILRB2 expressed on cells; assay: flow cytometry, Jurkat-LILRB2 cells
[28] = target: T6, LILRA1 expressed on cells; assay: flow cytometry on CHO-LILRA1 cells, non-linear fit of the curves of FIG. 26E
[29] = target: T3, human LILRB2 expressed on cells; assay: flow cytometry on CHO-LILRB2 cells (CHO-RB2), titrated antibody, labelled anti-human Fc, gMFI
[30] = target: T2, human LILRB1 expressed on cells; assay: flow cytometry, Jurkat-LILRB1 cells; blocked ligand: APC HLA-G trimer tetramer
[31] = target: T2, human LILRB1 expressed on cells; assay: flow cytometry, Jurkat-LILRB1 cells

T1 sequence (Q8NHL6 other isoform, or with tags, fused parts or gaps H02H H02H): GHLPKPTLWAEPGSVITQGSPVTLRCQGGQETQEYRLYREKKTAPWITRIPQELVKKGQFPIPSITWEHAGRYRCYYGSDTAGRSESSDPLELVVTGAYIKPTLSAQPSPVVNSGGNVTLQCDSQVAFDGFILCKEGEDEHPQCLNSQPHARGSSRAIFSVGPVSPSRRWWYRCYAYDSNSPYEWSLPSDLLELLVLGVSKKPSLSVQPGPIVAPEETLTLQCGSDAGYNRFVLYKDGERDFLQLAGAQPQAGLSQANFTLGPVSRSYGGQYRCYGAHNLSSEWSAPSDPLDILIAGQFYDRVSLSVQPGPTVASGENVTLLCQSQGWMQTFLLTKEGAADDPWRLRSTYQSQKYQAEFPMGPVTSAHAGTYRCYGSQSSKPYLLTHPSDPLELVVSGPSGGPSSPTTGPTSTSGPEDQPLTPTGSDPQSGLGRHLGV

B1: Anti-LILRB1 antibody 15G8 (antibody, human IgG4 S228P, kappa)
heavy: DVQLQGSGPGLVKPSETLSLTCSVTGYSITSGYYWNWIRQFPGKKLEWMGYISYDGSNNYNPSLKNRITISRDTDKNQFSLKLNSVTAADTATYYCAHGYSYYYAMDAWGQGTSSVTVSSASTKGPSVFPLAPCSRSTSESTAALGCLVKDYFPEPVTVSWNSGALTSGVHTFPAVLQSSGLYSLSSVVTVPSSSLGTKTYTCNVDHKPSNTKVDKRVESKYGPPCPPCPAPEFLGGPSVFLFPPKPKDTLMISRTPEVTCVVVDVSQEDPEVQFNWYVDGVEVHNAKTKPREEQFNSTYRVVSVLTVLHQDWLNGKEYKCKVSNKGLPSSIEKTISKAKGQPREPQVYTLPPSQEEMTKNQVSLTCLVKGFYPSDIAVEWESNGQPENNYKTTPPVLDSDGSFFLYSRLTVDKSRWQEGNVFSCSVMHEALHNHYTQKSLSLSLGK
light: DIQMTQSPSSLSASVGDRVTITCRTSQDISNYLNWYQQKPGKAVKLLISYTSRLHSGVPSRFSGSGSGTDYTLTISSLQPEDFATYYCQQGNTLPTFGQGTKLEIKRTVAAPSVFIFPPSDEQLKSGTASVVCLLNNFYPREAKVQWKVDNALQSGNSQESVTEQDSKDSTYSLSSTLTLSKADYEKHKVYACEVTHQGLSSPVTKSFNRGEC
notes: also called BND-22
binding result [1]: binds

B2: #1 (antibody, human IgG1, V domains shown)
VH: EVQLQQSGPELVKPGASVKMSCKASGYTFTRYVMHWVKQKPGQGLEWIGYINPNNDGTKYNEKFKGKVTLTSDKSSSTAYMELSSLTSEDSAVYYCARGDLEILPYYDHARNAMDYWGQGTSVTVSS
VL: DIVMTQSPASQSASLGESVIITCRASGNIHNYLAWYQQKQGKSPQLLVYNAKTLADGVPSRFSGSGSGTQYSLKINSLQPEDFGTYYCQHFWSSPPTFGGGTKLELK
notes: also called D2M002-001
EC50 (read off the curve) [2]: ~0.09 µg/mL
EC50 [3]: 0.033 µg/mL
gMFI (max) [3]: 16300
EC50 [4]: 0.093 µg/mL
gMFI (max) [4]: 26800
Kd [5]: 14.7 nM
Kd [6]: 2.08 nM

B4: D2M002-026 (antibody, V domains shown)
VH: QVQLQQPGAELMKPGASVKISCKATGYTFSSYWIEWVKQRPGHGLEWIGEILPGDGSTNYNAKFKGQATFTADTSSNTAYMQFSSLTSEDSAVYYCARSGAGGYDSGAFAYWGQGTLVTVSS
VL: DIVLTQSPASLAVSLGQRATISCRASESVDTYGNSFMHWYQQKPGQPPKLLVYRTSNLESGIPARFSGSGSGTDFTLTINPVEADDVATYYCQQSNEDPWTFGGGTKLEIK
notes: Hit; also called clone #26
Kd [8]: 0.0608 nM
koff [8]: 4.53e-05 s⁻¹
kon [8]: 745000 M⁻¹ s⁻¹
Kd [9]: 0.382 nM
koff [9]: 2.79e-05 s⁻¹
kon [9]: 73100 M⁻¹ s⁻¹
binding result [10]: binds
IC50 [11]: 0.197 µg/mL
Kd [12]: 0.689 nM
EC50 (read off the curve) [13]: ~0.09 µg/mL
binding result [14]: no binding (tested: 5 µg/mL)
binding result [15]: no binding (tested: 5 µg/mL)
EC50 [3]: 2.63 µg/mL
gMFI (max) [3]: 35500
EC50 (read off the curve) [16]: ~0.4 µg/mL
EC50 [17]: 0.4 µg/mL
MaxMFI [17]: 113000
EC50 [4]: 0.818 µg/mL
gMFI (max) [4]: 43200
Kd [5]: 0.737 nM
Kd [6]: 0.0286 nM
EC50 [18]: 1.02 µg/mL
EC50 [19]: 0.18 µg/mL
MaxMFI [19]: 31800
binding result [20]: no binding (tested: 5 µg/mL)
binding result [21]: no binding (tested: 5 µg/mL)
IC50 [22]: 0.023 µg/mL
binding result [23]: no binding (tested: 5 µg/mL)
binding result [24]: no binding (tested: 5 µg/mL)
binding result [25]: no binding (tested: 5 µg/mL)
Kd [26]: 0.103 nM
EC50 [27]: 0.106 µg/mL
EC50 [28]: 0.0877 µg/mL
MaxMFI [28]: 28100
EC50 (read off the curve) [29]: ~0.2 µg/mL
IC50 [30]: 0.34 µg/mL
EC50 [31]: 1.94 µg/mL

Now from value to binder:

binding result [1]: binds
binding result [7]: binds
B3: Anti-LILRB1/2 antibody Hz73D1.v1 (antibody, human IgG1, kappa, N297G, V domains shown)
VH: QVQLVQSGAEVKKPGASVKVSCKASGYTFTDYYINWVRQAPGQGLEWMGNVNPNDGGTTYNQKFKGRVTMTTDTSTSTAYMELRSLRSDDTAVYYCARREIYFYGTIYYYAMDYWGQGTLVTVSS
VL: DIQLTQSPSFLSASVGDRVTITCRASESVDYYGNSFMYWYQQKPGKAPKLLIYFASNLESGVPSRFSGSGSGTEFTLTISSLQPEDFATYYCQQNNEDPWTFGGGTKVEIKR
notes: also called NGM707

binding result [7]: binds
B5: Anti-LILRB2 antibody J-19.H1 (antibody, human IgG4 S228P, kappa, V domains shown)
VH: QVTLKESGPGILQPSHTLSLTCSFSGFSLNTYAMGVSWIRQPSGKGLEWLASIWWNGNKYNNPSLKSRLTVSKDTSNNQAFLKVTSVDTADTATYYCAHSRIIRFTDYVMDAWGQGASVTVSS
VL: DIQMTQSPASLSTFLGEPVTIECRASEDIYNDLAWYQQKPGKSPQLLIYNANSLHTGVPSRFSGSGSGTQYSLKINSLQSEDVASYFCQQYYDYPLTFGSGTKLEIKR
notes: also called JTX-8064
